One experiment has as its target T1, Collagen type I (rat) (rat, UniProt P02454 152-1207; P02466 86-1125).
T1 construct: Coated on plates at 10 ug/cm^2; the chains come from general knowledge; also called collagen I; COL I
Briefly: plate binding, biotinylated peptide on coated protein, streptavidin-594 fluorescence. As for the experimental part: (§1) Peptide and ECM Binding Specificity. Collagens I, II, III, and IV, fibronectin, laminin, and Matrigel were coated onto 96-well black plates at 10 μg/cm². Biotinylated CBP or CBPi were added to coated plates at 0, 1, 10, 100, and 1000 μM overnight at 4° C., after which the plates were washed three times with PBS. Fluorescent streptavidin-594 (4 μg/mL) was added to each well and incubated at room temperature for 2 h, then thoroughly washed with PBS. The plates were read with a fluorescence microplate reader for fluorescence intensity (Ex 591 nm, Em 614 nm). All data were normalized to the background fluorescence intensity of Streptavidin-594 alone directed at each coated protein.
(§2) CBP Selectively Binds to ECM with High Specificity to Collagen IV. […] Bound peptides were subsequently probed with fluorescently labeled streptavidin. CBP, but not CBPi, bound specifically to collagen IV coated surfaces with high relative affinity, and to collagen I coated surfaces to a much lesser extent. […] Neither CBP nor CBPi binds to collagen II, collagen III, or fibronectin.

Experiment [1] has as its target T2, Collagen type III (human) (human, UniProt P02461 154-1221).
T2 construct: Coated on plates; also called collagen III; COL III
T2 sequence (looked up): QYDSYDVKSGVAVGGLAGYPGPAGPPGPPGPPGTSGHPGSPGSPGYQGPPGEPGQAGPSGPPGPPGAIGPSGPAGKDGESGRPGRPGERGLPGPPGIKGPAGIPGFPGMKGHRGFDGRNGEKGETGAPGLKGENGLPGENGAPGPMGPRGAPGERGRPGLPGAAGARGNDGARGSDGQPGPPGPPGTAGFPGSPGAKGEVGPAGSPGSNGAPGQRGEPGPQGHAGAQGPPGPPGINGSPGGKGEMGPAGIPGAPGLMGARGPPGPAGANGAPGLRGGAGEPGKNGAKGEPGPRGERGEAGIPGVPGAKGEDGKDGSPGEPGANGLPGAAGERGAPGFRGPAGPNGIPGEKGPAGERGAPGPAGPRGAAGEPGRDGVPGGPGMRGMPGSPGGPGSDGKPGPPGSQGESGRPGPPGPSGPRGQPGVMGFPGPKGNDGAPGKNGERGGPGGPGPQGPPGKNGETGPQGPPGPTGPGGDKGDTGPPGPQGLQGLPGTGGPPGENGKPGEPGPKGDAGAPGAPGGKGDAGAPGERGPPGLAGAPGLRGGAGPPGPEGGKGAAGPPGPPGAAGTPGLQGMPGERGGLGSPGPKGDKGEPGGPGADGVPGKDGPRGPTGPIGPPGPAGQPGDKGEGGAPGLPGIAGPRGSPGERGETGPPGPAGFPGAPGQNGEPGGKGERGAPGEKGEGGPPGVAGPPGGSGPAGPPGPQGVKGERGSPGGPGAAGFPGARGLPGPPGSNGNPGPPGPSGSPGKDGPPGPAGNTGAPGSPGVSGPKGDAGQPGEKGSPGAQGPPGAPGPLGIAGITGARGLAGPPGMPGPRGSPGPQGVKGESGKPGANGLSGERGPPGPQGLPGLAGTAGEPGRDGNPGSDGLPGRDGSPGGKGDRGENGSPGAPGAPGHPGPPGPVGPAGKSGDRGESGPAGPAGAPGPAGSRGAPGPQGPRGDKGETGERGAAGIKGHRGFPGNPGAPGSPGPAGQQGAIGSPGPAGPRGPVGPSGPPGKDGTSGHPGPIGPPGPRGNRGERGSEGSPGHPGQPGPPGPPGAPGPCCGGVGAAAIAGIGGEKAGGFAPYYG
Described as above. As for the experimental part:
as §1, §2

Experiment [2] addresses T3, Collagen type IV (mouse) (mouse, UniProt P02463 28-1669; P08122 26-1707).
T3 construct: Coated on plates at 10 ug/cm^2; the chains come from general knowledge; also called collagen IV; COL IV
Described as above. How it is done: as §1, §2

Experiment [3] concerns the target T4, Fibronectin from human plasma (human, UniProt P02751-8 32-2296, limits assumed).
T4 construct: Coated on plates; also called FN
The description is as above. As for the experimental part:
as §1, §2

Experiment [4] addresses Collagen IV (surface coated, Example 2). The experiment is described as follows: Cy5 fluorescence after 24 hour incubation on surface coated collagen IV; conjugate at 30 mg/ml; reference is the scrambled CBPi-Hep(Cy5) conjugate.
Experiment [5] deals with T3, Collagen type IV (mouse). The experiment is described as follows: plate binding, biotinylated CBP at 100 µM on coated collagen IV, streptavidin-594 fluorescence normalised to background. As for the experimental part: as §1, §2
Experiment [6] addresses T3, Collagen type IV (mouse). The experiment is described as follows: plate binding, biotinylated CBP at 1000 µM on coated collagen IV, streptavidin-594 fluorescence normalised to background. How it is done: as §1, §2

Ends that are not written are not given here. * marks the point of attachment. Biotin = O=C1N[C@H]2[C@H](CS[C@H]2CCCCC(=O)*)N1

T3 sequence (P02463 28-1669, chain 1 of 2): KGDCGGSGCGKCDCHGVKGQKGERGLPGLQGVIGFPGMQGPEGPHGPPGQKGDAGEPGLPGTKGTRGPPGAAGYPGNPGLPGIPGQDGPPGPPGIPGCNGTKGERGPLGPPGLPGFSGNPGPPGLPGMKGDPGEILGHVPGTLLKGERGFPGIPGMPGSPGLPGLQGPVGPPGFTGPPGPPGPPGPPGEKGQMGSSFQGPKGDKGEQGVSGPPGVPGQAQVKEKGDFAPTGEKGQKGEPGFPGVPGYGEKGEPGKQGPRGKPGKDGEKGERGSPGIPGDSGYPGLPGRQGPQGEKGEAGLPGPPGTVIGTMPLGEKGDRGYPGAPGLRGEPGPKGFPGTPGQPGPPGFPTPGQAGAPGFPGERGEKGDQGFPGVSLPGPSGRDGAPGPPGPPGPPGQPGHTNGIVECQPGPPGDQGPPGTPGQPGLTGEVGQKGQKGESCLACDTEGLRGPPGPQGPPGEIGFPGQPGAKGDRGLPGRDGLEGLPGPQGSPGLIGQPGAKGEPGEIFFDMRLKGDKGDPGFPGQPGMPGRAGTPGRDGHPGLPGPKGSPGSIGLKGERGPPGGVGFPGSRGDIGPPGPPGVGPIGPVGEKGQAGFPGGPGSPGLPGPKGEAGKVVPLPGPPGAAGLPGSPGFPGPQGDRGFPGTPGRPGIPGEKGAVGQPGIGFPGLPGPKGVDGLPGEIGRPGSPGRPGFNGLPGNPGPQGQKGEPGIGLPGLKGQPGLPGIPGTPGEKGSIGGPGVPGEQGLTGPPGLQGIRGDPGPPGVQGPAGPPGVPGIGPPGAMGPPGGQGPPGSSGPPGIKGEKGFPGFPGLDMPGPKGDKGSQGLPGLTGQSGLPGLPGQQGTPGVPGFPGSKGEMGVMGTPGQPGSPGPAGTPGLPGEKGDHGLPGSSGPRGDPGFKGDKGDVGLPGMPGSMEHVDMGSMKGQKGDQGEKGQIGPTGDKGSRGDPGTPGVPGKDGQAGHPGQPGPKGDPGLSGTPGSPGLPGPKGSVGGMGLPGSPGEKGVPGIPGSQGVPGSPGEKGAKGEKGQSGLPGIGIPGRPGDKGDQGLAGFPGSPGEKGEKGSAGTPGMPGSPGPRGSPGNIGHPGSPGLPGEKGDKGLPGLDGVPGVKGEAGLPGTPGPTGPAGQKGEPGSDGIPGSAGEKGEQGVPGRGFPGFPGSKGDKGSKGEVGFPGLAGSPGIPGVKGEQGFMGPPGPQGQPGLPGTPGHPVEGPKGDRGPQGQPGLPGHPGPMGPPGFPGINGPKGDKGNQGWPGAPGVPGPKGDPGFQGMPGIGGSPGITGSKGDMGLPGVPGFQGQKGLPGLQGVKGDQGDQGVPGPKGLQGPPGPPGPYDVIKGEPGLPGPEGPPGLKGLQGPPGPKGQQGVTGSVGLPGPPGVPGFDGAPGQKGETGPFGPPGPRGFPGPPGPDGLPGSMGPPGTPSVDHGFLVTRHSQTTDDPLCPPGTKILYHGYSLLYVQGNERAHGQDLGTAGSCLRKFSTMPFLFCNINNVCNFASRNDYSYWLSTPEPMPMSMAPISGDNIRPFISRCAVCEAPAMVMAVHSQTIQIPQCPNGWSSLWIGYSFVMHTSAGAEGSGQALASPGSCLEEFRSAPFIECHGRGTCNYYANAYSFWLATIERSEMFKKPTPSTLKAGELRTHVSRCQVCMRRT
T3 sequence (P08122 26-1707, chain 2 of 2): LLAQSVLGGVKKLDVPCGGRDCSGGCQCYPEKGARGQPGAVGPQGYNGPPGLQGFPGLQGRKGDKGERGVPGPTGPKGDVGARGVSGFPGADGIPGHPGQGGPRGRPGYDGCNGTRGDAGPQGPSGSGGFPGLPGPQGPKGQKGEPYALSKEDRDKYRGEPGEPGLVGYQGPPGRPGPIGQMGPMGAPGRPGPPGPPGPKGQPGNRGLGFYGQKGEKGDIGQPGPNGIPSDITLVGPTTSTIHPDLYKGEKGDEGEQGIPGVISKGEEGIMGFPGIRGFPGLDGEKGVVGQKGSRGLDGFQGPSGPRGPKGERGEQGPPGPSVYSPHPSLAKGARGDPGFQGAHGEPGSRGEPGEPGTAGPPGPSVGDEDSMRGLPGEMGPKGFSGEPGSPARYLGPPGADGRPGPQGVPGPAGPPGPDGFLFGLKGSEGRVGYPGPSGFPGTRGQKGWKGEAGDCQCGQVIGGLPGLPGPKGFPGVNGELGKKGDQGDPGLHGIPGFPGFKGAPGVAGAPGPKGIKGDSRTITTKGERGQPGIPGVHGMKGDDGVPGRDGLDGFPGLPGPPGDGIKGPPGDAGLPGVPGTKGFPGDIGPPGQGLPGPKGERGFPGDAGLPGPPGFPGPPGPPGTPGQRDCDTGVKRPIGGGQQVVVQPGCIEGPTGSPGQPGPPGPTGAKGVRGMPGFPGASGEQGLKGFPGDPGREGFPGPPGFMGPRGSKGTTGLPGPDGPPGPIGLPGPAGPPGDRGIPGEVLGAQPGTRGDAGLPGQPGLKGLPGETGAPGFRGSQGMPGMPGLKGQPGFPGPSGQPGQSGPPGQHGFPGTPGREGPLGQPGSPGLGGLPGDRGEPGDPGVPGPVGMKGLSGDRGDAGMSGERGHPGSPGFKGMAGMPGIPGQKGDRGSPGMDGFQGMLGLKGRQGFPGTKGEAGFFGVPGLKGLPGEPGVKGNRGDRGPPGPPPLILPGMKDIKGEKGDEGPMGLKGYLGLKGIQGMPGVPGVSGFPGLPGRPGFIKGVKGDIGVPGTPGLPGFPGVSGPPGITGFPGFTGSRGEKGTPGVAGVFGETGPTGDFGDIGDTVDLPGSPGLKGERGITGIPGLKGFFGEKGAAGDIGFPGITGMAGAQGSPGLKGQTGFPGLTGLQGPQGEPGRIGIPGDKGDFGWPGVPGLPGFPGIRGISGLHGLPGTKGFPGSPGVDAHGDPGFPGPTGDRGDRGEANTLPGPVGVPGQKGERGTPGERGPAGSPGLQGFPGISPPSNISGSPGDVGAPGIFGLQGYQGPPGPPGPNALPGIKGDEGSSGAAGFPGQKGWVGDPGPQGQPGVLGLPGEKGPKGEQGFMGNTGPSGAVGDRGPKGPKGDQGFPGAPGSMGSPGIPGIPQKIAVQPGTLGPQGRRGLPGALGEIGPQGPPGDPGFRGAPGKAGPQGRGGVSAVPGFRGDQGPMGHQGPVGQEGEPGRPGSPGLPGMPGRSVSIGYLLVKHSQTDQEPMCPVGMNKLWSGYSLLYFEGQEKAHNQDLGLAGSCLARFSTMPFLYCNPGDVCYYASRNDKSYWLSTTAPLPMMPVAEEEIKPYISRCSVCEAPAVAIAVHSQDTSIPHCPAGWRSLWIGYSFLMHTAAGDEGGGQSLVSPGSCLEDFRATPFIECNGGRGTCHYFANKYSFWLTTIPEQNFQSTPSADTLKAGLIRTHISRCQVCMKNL

B1: Biotinylated inactive, nonbinding peptide CBPi (biotin-CDEFQRSTTY) (peptide)
peptide: Biotin-CDEFQRSTTY
notes: also called biotinylated CBPi
Consider B1, for which the binding result (with Collagen type I (rat); in experiment [1]; in the experiment with Collagen type IV (mouse) [2]; in experiment [3]) was “no binding (tested: 1000 µM)” each time.

B2: CBP-Hep(Cy5), improved batch (Heparin(Cy5)-CBP conjugate, 20 C, 10:1 molar ratio CBP:Hep-Cy5) (peptide)
peptide: CQDSETRTFY
modifications: also: peptide conjugated by EDC/NHS to carboxyl groups of Cy5-labelled heparin (28 kD), attachment site not given here
B2 gave a fold binding against the scrambled CBPi control in experiment [4] of 4 fold.

B3: Biotinylated collagen-binding peptide CBP (biotin-CQDSETRTFY) (peptide)
peptide: Biotin-CQDSETRTFY
notes: also called biotinylated CBP
Turning to B3, the binding result in experiment [1] and in experiment [3] was “no binding (tested: 1000 µM)” in each case. The “fold increase in surface fluorescence intensity” value with Collagen type IV (mouse) [5] came out at 3.85 fold; with Collagen type IV (mouse) [6], 12.1 fold.

The values above are taken from patent US20210299158A1 (NORTHWESTERN UNIVERSITY, published 2021).
